This note sets out measurements from PMC3434800.

In one data set the target is T1, Hel308 R662A (Sulfolobus solfataricus PBL2025, UniProt D0KN27 8-715, R669A).
T1 sequence: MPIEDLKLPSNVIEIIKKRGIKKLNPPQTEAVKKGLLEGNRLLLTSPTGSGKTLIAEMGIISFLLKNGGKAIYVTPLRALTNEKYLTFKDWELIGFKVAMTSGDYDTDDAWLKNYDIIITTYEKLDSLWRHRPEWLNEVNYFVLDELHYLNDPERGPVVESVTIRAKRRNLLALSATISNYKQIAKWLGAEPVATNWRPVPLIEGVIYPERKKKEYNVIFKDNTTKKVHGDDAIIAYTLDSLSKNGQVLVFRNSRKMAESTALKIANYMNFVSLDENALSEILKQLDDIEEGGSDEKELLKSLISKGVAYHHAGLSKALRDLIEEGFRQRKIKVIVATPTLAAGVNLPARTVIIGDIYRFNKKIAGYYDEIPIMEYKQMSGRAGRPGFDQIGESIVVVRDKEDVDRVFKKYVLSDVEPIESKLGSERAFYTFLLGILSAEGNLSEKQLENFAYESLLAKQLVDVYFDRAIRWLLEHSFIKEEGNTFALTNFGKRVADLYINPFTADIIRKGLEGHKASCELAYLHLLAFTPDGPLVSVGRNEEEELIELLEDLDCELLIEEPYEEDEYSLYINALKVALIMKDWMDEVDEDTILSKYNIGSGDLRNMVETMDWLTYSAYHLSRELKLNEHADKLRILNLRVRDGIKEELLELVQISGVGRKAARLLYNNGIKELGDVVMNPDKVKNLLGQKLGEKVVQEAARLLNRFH
The experiment in a line: fluorescence anisotropy. On the technique in general: Fluorescence polarisation rises when a labelled molecule tumbles more slowly, as on binding a larger partner.

In another data set the target is T2, Hel308 K52A (Sulfolobus solfataricus PBL2025, UniProt D0KN27 8-715, K59A).
T2 sequence: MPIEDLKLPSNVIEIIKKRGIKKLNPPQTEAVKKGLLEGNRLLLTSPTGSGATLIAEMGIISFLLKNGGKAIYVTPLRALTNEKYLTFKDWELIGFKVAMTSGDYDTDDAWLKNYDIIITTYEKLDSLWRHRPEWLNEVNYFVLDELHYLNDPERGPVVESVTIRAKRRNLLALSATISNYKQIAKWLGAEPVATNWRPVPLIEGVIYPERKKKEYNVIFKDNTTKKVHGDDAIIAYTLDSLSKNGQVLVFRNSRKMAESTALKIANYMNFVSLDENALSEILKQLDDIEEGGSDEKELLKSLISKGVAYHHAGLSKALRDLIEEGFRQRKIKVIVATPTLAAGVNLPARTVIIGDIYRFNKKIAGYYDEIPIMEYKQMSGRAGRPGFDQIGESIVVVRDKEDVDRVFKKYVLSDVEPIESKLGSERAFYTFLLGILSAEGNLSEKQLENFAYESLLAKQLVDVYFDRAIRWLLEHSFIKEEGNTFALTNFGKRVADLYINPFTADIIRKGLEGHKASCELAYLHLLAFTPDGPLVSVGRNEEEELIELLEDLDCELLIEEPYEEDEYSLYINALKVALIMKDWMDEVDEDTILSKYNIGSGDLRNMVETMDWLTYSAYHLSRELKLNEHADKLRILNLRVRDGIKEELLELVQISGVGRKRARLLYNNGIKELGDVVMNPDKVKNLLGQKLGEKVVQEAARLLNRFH
Nature of the data set: fluorescence anisotropy.

The target in the next data set is T3, Hel308 R255A (Sulfolobus solfataricus PBL2025, UniProt D0KN27 8-715, R262A).
T3 sequence: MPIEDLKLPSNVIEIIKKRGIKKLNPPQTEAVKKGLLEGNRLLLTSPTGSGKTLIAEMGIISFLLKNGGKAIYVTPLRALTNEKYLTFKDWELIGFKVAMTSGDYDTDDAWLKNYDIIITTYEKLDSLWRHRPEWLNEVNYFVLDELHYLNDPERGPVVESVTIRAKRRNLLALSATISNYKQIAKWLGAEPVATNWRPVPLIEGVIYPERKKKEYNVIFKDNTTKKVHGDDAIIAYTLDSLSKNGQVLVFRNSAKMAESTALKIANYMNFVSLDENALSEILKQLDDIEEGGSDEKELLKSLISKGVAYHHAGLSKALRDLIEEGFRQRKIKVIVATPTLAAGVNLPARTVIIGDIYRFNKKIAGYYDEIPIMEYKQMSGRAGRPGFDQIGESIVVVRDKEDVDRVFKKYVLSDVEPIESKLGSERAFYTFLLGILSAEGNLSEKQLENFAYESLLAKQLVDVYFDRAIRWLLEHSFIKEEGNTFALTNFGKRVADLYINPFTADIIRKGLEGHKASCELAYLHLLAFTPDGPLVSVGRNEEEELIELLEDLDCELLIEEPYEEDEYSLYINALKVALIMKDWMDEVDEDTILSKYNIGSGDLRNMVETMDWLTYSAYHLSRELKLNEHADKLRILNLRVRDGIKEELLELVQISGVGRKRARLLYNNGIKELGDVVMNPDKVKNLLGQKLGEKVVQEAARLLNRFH
The experiment in a line: fluorescence anisotropy.

Data set [1] deals with T4, Hel308 (ssHel308) wild type (Sulfolobus solfataricus PBL2025, UniProt D0KN27 8-715).
T4 sequence: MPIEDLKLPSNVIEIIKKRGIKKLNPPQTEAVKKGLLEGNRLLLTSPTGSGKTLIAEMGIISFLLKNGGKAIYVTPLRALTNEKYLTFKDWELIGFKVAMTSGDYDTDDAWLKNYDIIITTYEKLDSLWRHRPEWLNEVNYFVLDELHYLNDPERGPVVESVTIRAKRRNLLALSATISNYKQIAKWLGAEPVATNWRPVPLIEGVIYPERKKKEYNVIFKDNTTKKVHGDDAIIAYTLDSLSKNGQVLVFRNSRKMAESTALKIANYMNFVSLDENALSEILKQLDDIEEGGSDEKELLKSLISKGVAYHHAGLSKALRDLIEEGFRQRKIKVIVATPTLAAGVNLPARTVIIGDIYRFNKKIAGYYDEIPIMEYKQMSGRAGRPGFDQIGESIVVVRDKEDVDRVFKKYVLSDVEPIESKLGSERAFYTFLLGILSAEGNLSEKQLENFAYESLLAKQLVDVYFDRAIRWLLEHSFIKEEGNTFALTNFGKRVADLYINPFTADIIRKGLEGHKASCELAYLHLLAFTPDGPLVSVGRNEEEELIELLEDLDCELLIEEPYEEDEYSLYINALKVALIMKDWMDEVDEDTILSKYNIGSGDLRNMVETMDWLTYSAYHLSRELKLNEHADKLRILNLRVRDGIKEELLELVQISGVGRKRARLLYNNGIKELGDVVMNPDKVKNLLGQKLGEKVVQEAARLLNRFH
The experiment in a line: fluorescence anisotropy.

For data set [2], the target named is T4, Hel308 (ssHel308) wild type. The experiment in a line: competition.

What is called Kd is a measure of binding affinity in units of concentration. Low values mean higher affinity, high ones lower affinity. For TTTTTTTTTTTTTTT (ssDNA) [15T ssDNA, 5'-fluorescein], the binding result in the data set with Hel308 R662A and with Hel308 K52A was “binds” throughout. In addition, the binding signal with Hel308 R255A is 25 fold increase in Kd vs wild type. The Kd in data set [1] turned out to be 140 nM.

The molecule TTTTTTTTTTTTTTT (ssDNA) [15T ssDNA, unlabelled competitor] showed a dissociation constant Kd in data set [2] of 130 nM.

B1: 15T/15A duplex, 5'-fluorescein on 15T (dsDNA)
DNA 1: TTTTTTTTTTTTTTT
DNA 2: AAAAAAAAAAAAAAA
Turning to B1, binding in data set [1] was characterised by a dissociation constant (Kd) of 5300 nM.
